These results are taken from article PMC7383310.

The target in the experiment is recombinant human galectin-3 protein (human) (UniProt P17931). The experiment in a line: AlphaScreen or HTRF; indirect AlphaLISA saturation binding; His-tagged tau K18 (0-100 nM, analyte) on anti-His donor beads, untagged GAL-3 (1, 3 and 10 nM) captured by anti-GAL-3 antibody and anti-rabbit IgG acceptor beads; proteins incubated 60 min at 4°C, beads 60 min at RT in the dark; assay buffer in DPBS; Kd = concentration at 50% saturation.
Chain of UniProt P17931 (P17931 whole entry): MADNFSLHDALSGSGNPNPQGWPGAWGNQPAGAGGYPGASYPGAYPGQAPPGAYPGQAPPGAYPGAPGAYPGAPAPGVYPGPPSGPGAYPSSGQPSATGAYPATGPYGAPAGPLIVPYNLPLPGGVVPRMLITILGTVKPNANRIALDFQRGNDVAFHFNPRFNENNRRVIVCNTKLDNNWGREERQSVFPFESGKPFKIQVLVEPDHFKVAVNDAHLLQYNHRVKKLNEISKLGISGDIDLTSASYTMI

Where “and” joins values, the source holds several entries; their conditions need not be identical. Equal values may be shown once.

A word on the Kd: it is the concentration at which binding is half-saturated. Take “His-tagged human tau K18 fragment (domain or fragment)”: the Kd was 8.31 nM and 8.73 nM and 9.13 nM.
